Reference: US6635627B1, “Anti-cancer products for treating cystic fibrosis” (Centre National de la Recherche Scientifique (CNRS), priority 1997, dated 2003)

Experiment: Retention on affinity column grafted with glutathione (GSH) after thrombin cutting
Format: binding
Conditions: after cutting GST-NBF1 with thrombin; coelutes with GST
Protocol: The suspension was centrifuged at 17,000 rpm for 40 minutes, and at 4° C., on a JA20 rotor (Beckman). The supernatant was incubated with 5 ml of a glutathione support (G4B Pharmacia) at ambient temperature for 30 minutes. The column was filled. The fusion protein was eluted with a 10 mM glutathione, 50 mM Tris, pH 8, solution at a flow rate of 0.05 ml/min. The fractions absorbing at 280 nm were collected and applied in portions of 500 μl to an ion exchange column (MonoQ, Pharmacia). The column was eluted with a 150 mM solution of NaCl and a 42 kD protein was identified on an SDS-PAGE gel and then confirmed by mass spectroscopy. The production yields of soluble fusion protein are 5 mg/l of culture.
Following purification, the fusion protein sample was dialyzed against a buffer (150 mM NaCl, 2.5 mM CaCl2, 50 mM Tris/HC1) at pH=8. Human thrombin (T7009, Sigma) was added to give a final concentration of 5u per mg of fusion protein. The mixture was incubated at ambient temperature for 30 minutes. The products of the cutting reaction were characterized on an SDS-PAGE gel and a protein having a molecular weight of 18 kD (corresponding to the expected molecular weight of NBF1) was observed.
The GST-NBF1 fusion protein is efficiently recognized by an anti-NBF1 antibody (MATG 1061, distributed by Transgene). The affinity of this recombinant protein for ATP was verified. […]

B1: NBF1: Recombinant NBF1 domain of the CFTR protein (sequence R450-I586), 18 kD, released from GST fusion by thrombin (protein, UniProt P13569 450-586, looked up, fragment)
chain: RGQLLAVAGSTGAGKTSLLMVIMGELEPSEGKIKHSGRISFCSQFSWIMPGTIKENIIFGVSYDEYRYRSVIKACQLEEDISKFAEKDNIVLGEGGITLSGGQRARISLARAVYKDADLYLLDSPFGYLDVLTEKEI
- behaviour on column of immobilized GSH: retained on the GSH column
